Data reported in the supplement of paper PMC12764529.
± gives the half width of the 95% confidence interval.

Key:
[1] = folding stability dG unfold from chymotrypsin proteolysis; higher = more stable
In short: (§1)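 Only designs with AlphaFold2 dimer inter-PAE above 15 were retained; each was a mini-protein under 80 residues with no cysteine, in a PA-tagged cDNA display construct. After digestion with trypsin and chymotrypsin and sequencing, K50 was inferred by Bayesian fitting of counts, and unfolding free energy was derived per protease or combined against a sequence-predicted unfolded-state K50 and a shared folded-state K50.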

[2] = folding stability dG unfold from trypsin proteolysis; higher = more stable
In short: as §1

[3] = folding stability dG unfold (combined trypsin and chymotrypsin); higher = more stable
In short: as §1

Sequence: SAGAIERILEWLKDQPPGDEVPIPIRLPNGWYIKINIEYNPEENKPKIEVEYYDPDDGKPRQEQKFTIPSAG [r5_35_TrROS]
- folding stability dG unfold [1]: 0.899 ± 0.17 kcal/mol
- folding stability dG unfold [2]: 1.59 ± 0.077 kcal/mol
- folding stability dG unfold [3]: 1.31 ± 0.25 kcal/mol

Sequence: SAGELELELELEFELEDGYRVEVRLRLRVRPDGSVRMELEVRIEPLPPPPPVRVVVVREDDPEALRALSAGG [r19_12_TrROS_Hall]
- folding stability dG unfold [1]: 4.49 ± 0.19 kcal/mol
- folding stability dG unfold [2]: 2.73 ± 0.1 kcal/mol
- folding stability dG unfold [3]: 3.6 ± 0.61 kcal/mol

Sequence: SKKYFLKIEIEIEVELRPLPDEPGYVVLRARIKIKITLVKVDPETGEIVEEKEFEIEIEIELVFPPGVKPSA [r9_1234_TrROS_Hall]
- folding stability dG unfold [1]: 6.38 ± 0.71 kcal/mol
- folding stability dG unfold [2]: 4.35 ± 0.58 kcal/mol
- folding stability dG unfold [3]: > 6 kcal/mol

Sequence: SAGGSAGGSAGMVVSVDRATGTFTATDPALGTTTTVPGSEEEVRAYWAERFPDRPVTITASAGGSAGGSAGG [r11_614_JUSTAS]
- folding stability dG unfold [1]: -0.221 ± 0.38 kcal/mol
- folding stability dG unfold [2]: -0.00347 ± 0.076 kcal/mol
- folding stability dG unfold [3]: -0.0207 ± 0.15 kcal/mol

Sequence: SAGGKVKALIIPAPDEPGKPVYLKIIHPDGEIVYPLPNDITEEEAKAAAIELGEENGLDLDEIEIAESAGGS [r16_753_TrMRF]
- folding stability dG unfold [1]: 0.893 ± 0.065 kcal/mol
- folding stability dG unfold [2]: 0.537 ± 0.032 kcal/mol
- folding stability dG unfold [3]: 0.746 ± 0.099 kcal/mol

Sequence: SAGMTIEELRSLPPGARVTSVEYDEETEEVTVTVERTREDGKTETLTLTFRSREELEAALKAGADRIVFSAG [r5_905_TrROS_Hall]
- folding stability dG unfold [1]: 1.16 ± 0.059 kcal/mol
- folding stability dG unfold [2]: 1.731 ± 0.017 kcal/mol
- folding stability dG unfold [3]: 1.54 ± 0.052 kcal/mol

Sequence: SAGGMMIVIRIPNKPVEFEINGWKIEYNPDEGTIIIPFPPEMLDQLEKLPGLEGIKDIEIIPPGELKSAGGS [r8_493_TrROS]
- folding stability dG unfold [1]: 2.56 ± 0.051 kcal/mol
- folding stability dG unfold [2]: 1.22 ± 0.029 kcal/mol
- folding stability dG unfold [3]: 2.12 ± 0.14 kcal/mol

Sequence: SANMPPGDWKPINIKVKIERPGGKPEFEYPIYKHPDGMIMIFIHFPIPPGAYKIKIEFPGNGKENEFKFSAG [r14_280_TrROS]
- folding stability dG unfold [1]: 2.84 ± 0.09 kcal/mol
- folding stability dG unfold [2]: 1.52 ± 0.058 kcal/mol
- folding stability dG unfold [3]: 2.29 ± 0.32 kcal/mol

Sequence: SAGGSAGGSAGGMVIERPLPNGEPLLVELGRPASAPARVTVPNPGRPLGTITSLEELEERSAGGSAGGSAGG [r7_72_TrMRF]
- folding stability dG unfold [1]: 0.565 ± 0.03 kcal/mol
- folding stability dG unfold [2]: -0.207 ± 0.11 kcal/mol
- folding stability dG unfold [3]: 0.332 ± 0.13 kcal/mol

Sequence: SDKVEIWIPIPDGFWVRIKYDKPGKREITIWMPEDNPEFRKHGSMDQFIKHLARKLGLDPDKVKVDMYPMSA [r9_401_TrROS]
- folding stability dG unfold [1]: 4.11 ± 0.098 kcal/mol
- folding stability dG unfold [2]: 3.13 ± 0.1 kcal/mol
- folding stability dG unfold [3]: 3.69 ± 0.14 kcal/mol

Sequence: SAGGSAGGSAGIKIVAPSPELADMIAKEIAKEFGLPGKIKDIEIEVIPYKPTPNGGYQPYSAGGSAGGSAGG [r17_237_TrROS]
- folding stability dG unfold [1]: -0.363 ± 0.75 kcal/mol
- folding stability dG unfold [2]: -0.14 ± 0.26 kcal/mol
- folding stability dG unfold [3]: -0.383 ± 0.81 kcal/mol

Sequence: GPSPVSVSTSTSTSLSTVGNTPVLVTTTTTTTTTLSPDPTDPSVTTTTTTTTTTTTVYDPANGKPLSTTTSS [r1_406_JUSTAS]
- folding stability dG unfold [1]: 1.86 ± 0.059 kcal/mol
- folding stability dG unfold [2]: 1.83 ± 0.079 kcal/mol
- folding stability dG unfold [3]: 1.83 ± 0.14 kcal/mol

Sequence: SAGGPEVEAERFGDTVLVRITLLDPETGEPYEFLAIATRRPDGTVTVTIIHPDGRPSTIPLPLLPLASAGGS [r16_154_TrMRF]
- folding stability dG unfold [1]: 1.88 ± 0.039 kcal/mol
- folding stability dG unfold [2]: 2.63 ± 0.16 kcal/mol
- folding stability dG unfold [3]: 2.26 ± 0.14 kcal/mol

Sequence: SAGGSAGGSATTVTVESDPATGTRFVYETDEKNPGLLKVTKVTTLPDGSVVVETGYISPEKLSAGGSAGGSA [r18_505_JUSTAS]
- folding stability dG unfold [1]: 1.74 ± 0.043 kcal/mol
- folding stability dG unfold [2]: 1.45 ± 0.051 kcal/mol
- folding stability dG unfold [3]: 1.61 ± 0.11 kcal/mol

Sequence: SAGGSAGGMYTKTYNVPPDWKVTATATAPGGATVTDSSAPNGNFTLTFPASLADATTFTVTVTPSAGGSAGG [r6_237_JUSTAS]
- folding stability dG unfold [1]: 0.641 ± 0.13 kcal/mol
- folding stability dG unfold [2]: -0.869 ± 0.47 kcal/mol
- folding stability dG unfold [3]: 0.285 ± 0.14 kcal/mol

Sequence: SAGAGKTPDGKEYIIPFTFKNENGETTPEEIEEKIKEFTAKHPEVKIKEIKAIKEGDSVKVLVVVEKPASAG [r5_688_TrMRF]
- folding stability dG unfold [1]: 2.77 ± 0.053 kcal/mol
- folding stability dG unfold [2]: 2.61 ± 0.12 kcal/mol
- folding stability dG unfold [3]: 2.74 ± 0.28 kcal/mol

Sequence: SMEISFTDPAEAEALLAEVKAKLKAELPPNTVVPITVRDAAGNPTTHPITITPEPPEVVYFTETGGTVLLSA [r9_596_JUSTAS]
- folding stability dG unfold [1]: 1.57 ± 0.051 kcal/mol
- folding stability dG unfold [2]: 1.94 ± 0.17 kcal/mol
- folding stability dG unfold [3]: 1.76 ± 0.28 kcal/mol

Sequence: SAGGSAGGSAGGEKPKYIIIPATLTVPVLTKEGEGEKVEYKEITLLLIINPDTNEITVSSAGGSAGGSAGGS [r10_533_TrMRF]
- folding stability dG unfold [1]: 3.07 ± 0.07 kcal/mol
- folding stability dG unfold [2]: 2.7 ± 0.15 kcal/mol
- folding stability dG unfold [3]: 2.86 ± 0.22 kcal/mol

Sequence: SAAVTPLTETIPYTPEEARAAAEEVAAARAAALRAAGYRVLSVDVVEMEPGEYVIRMRLTVAAPDEALPSAG [r14_973_JUSTAS]
- folding stability dG unfold [1]: 3.12 ± 0.036 kcal/mol
- folding stability dG unfold [2]: 2.22 ± 0.033 kcal/mol
- folding stability dG unfold [3]: 2.86 ± 0.06 kcal/mol

Sequence: SAGGSAGGSAVETLVTYEVPEDLPPDSLSPEAVIARFAPLGVPTEVVEIDPATGTVTVRTLVPSAGGSAGGS [r12_733_JUSTAS]
- folding stability dG unfold [1]: 1 ± 0.037 kcal/mol
- folding stability dG unfold [2]: -0.377 ± 0.13 kcal/mol
- folding stability dG unfold [3]: 0.664 ± 0.047 kcal/mol

Sequence: SAGGSAGGSAGGSAMTLLSEEELPDGSRRVLMRFPDGTRMELTVHPDGSVEERVTPPAASAGGSAGGSAGGS [r4_483_JUSTAS]
- folding stability dG unfold [1]: 2.904 ± 0.021 kcal/mol
- folding stability dG unfold [2]: 2.28 ± 0.065 kcal/mol
- folding stability dG unfold [3]: 2.72 ± 0.086 kcal/mol
